Holding throughout (assay): cell-based or functional assay
The target in one assay is T1, human GIP receptor (human, UniProt P48546 22-466).
T1 sequence (looked up): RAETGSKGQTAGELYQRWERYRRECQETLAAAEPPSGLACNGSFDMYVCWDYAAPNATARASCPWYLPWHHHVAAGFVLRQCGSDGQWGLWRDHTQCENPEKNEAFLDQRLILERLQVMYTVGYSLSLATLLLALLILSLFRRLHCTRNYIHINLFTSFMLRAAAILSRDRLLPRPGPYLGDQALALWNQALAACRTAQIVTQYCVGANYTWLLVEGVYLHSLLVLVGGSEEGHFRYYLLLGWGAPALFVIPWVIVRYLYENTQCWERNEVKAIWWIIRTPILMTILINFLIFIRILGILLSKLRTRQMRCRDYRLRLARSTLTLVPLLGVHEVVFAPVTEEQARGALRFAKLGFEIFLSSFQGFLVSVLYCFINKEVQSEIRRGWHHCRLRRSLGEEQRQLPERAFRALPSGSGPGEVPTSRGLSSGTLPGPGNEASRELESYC

The next assay addresses human GLP-1 receptor (human, UniProt P43220 24-463).
The target of a further assay is human glucagon receptor (human, UniProt P47871 26-477).

B1: Example 19 (peptide)
peptide: YXEGTXTSDXSIXLDXKAQXEFIXXLIEGGPSSGAPPPSK
modifications: Aib2, αMeF(2F)6, 4Pal10, αMeL13, Orn16, Aib20, D-Glu24, αMeY25, K17 and K40: K(AEEA2-(γ-Glu)-CO-(CH2)12-CO2H), C-terminal NH2
B1: the figures for the “EC50, cAMP” value with human GIP receptor, in the assay with human GLP-1 receptor and in the assay with human glucagon receptor were 0.0158 nM, 1.34 nM and greater than 9950 nM, respectively. Further, in the assay with human GIP receptor, the “Emax, cAMP” value was 96.6%.

B2: Example 25 (peptide)
peptide: YXEGTXTSDXSIXLDXKAQXEFIXXLIEGGPSSGAPPPSK
modifications: Aib2, αMeF(2F)6, 4Pal10, αMeL13, Orn16, Aib20, D-Glu24, αMeY25, K17 and K40: K(AEEA2-(γ-Glu)-CO-(CH2)14-CH3), C-terminal NH2
In the case of B2, the “EC50, cAMP” value was 0.00243 nM with human GIP receptor, 0.00426 nM in the assay with human GLP-1 receptor and greater than 9950 nM with human glucagon receptor.

B3: Example 20 (peptide)
peptide: YXEGTXTSDXSIXLDXIAQXEFIXXLIKGGKSSGAPPPS
modifications: Aib2, αMeF(2F)6, 4Pal10, αMeL13, Orn16, Aib20, D-Glu24, αMeY25, K28 and K31: K(AEEA2-(γ-Glu)-CO-(CH2)12-CO2H), C-terminal NH2
For the molecule B3, the figures for the “EC50, cAMP” value with human GIP receptor, with human GLP-1 receptor and with human glucagon receptor were 0.00985 nM, 0.552 nM and greater than 9950 nM, respectively. The “Emax, cAMP” value with human GIP receptor turned out to be 98.8%.

B4: Example 6 (peptide)
peptide: YXEGTXTSDXSIXLDXKAQXEFIXXLIEGGKSSGAPPPS
modifications: Aib2, αMeF(2F)6, 4Pal10, αMeL13, Orn16, Aib20, D-Glu24, αMeY25, K17 and K31: K(AEEA2-(γ-Glu)-CO-(CH2)10-CO2H), C-terminal NH2
B4: the “EC50, cAMP” value with human GIP receptor is 0.0477 nM; with human GLP-1 receptor, 2.3 nM; with human glucagon receptor it was greater than 9950 nM.

B5: Example 27 (peptide)
peptide: YXEGTXTSDKSIXLDXKAQXEFIXXLIEGGPSSGAPPPS
modifications: Aib2, αMeF(2F)6, αMeL13, Orn16, Aib20, D-Glu24, αMeY25, K10 and K17: K(AEEA2-(γ-Glu)-CO-(CH2)12-CO2H), C-terminal NH2
For B5, the “EC50, cAMP” value was 0.116 nM with human GIP receptor, 2.77 nM with human GLP-1 receptor and greater than 9950 nM in the assay with human glucagon receptor. Moreover, the “Emax, cAMP” value with human GIP receptor was determined as 88.8%.

B6: Example 1 (peptide)
peptide: YXEGTXTSDXSIXLDXKAQXEFIXXLIEGGKSSGAPPPS
modifications: Aib2, αMeF(2F)6, 4Pal10, αMeL13, Orn16, Aib20, D-Glu24, αMeY25, K17 and K31: K(AEEA2-(γ-Glu)-CO-(CH2)12-CO2H), C-terminal NH2
Regarding B6, the results for the “EC50, cAMP” value with human GIP receptor, in the assay with human GLP-1 receptor and with human glucagon receptor were 0.0145 nM, 0.925 nM and greater than 9950 nM, respectively. Also, the “Emax, cAMP” value in the assay with human GIP receptor was determined as 90.2%.

B7: Example 102 (peptide)
peptide: YXEGTXTSDXSIXLDXKGQXEFIXXLIEGGKSSGAPPPS
modifications: Aib2, αMeF(2F)6, 4Pal10, αMeL13, Orn16, Aib20, D-Glu24, αMeY25, K17 and K31: K(AEEA2-(γ-Glu)-CO-(CH2)12-CO2H), C-terminal NH2
Regarding B7, the “EC50, cAMP” value with human GLP-1 receptor is 19.1 nM; with human glucagon receptor it was greater than 9950 nM.

B8: Example 22 (peptide)
peptide: YXEGTXTSDXSIXLDXKAQXEFIKXLIEGGPSSGAPPPS
modifications: Aib2, αMeF(2F)6, 4Pal10, αMeL13, Orn16, Aib20, αMeY25, K17 and K24: K(AEEA2-(γ-Glu)-CO-(CH2)14-CH3), C-terminal NH2
For the molecule B8, the “EC50, cAMP” value with human GIP receptor is 0.00656 nM; in the assay with human GLP-1 receptor, 0.0153 nM; with human glucagon receptor it was greater than 9950 nM.

B9: Example 10 (peptide)
peptide: YXEGTXTSDXSIXLDXKAQXEFIXXLIEGGKSSGAPPPS
modifications: Aib2, αMeF(2F)6, 4Pal10, αMeL13, Orn16, Aib20, D-Glu24, αMeY25, K17 and K31: K(AEEA2-(10-(4-carboxyphenoxy)decanoyl)), C-terminal NH2
B9: the “EC50, cAMP” value was 0.0106 nM with human GIP receptor and greater than 9950 nM with human glucagon receptor.

B10: Example 142 (peptide)
peptide: YXEGTXTSDXSIXLDXKAQXEFIXXLIEGGKSSGAPPPS
modifications: Aib2, αMeF(2F)6, Bzt10, αMeL13, Orn16, Aib20, D-Glu24, αMeY25, K17 and K31: K(AEEA2-(γ-Glu)-CO-(CH2)12-CO2H), C-terminal NH2
For B10, the “EC50, cAMP” value was 0.0317 nM with human GIP receptor and greater than 9950 nM with human glucagon receptor.

B11: Example 21 (peptide)
peptide: YXEGTXTSDXSIXLDXKAQXKFIXXLIEGGPSSGAPPPS
modifications: Aib2, αMeF(2F)6, 4Pal10, αMeL13, Orn16, Aib20, D-Glu24, αMeY25, K17 and K21: K(AEEA2-(γ-Glu)-CO-(CH2)14-CH3), C-terminal NH2
On to B11, for which the “EC50, cAMP” value with human GIP receptor is 0.00347 nM; with human GLP-1 receptor, 0.00655 nM; with human glucagon receptor, greater than 9950 nM.

B12: Example 26 (peptide)
peptide: YXEGTXTSDXSIXLDXIAQXEFIXXLIKGGKSSGAPPPS
modifications: Aib2, αMeF(2F)6, 4Pal10, αMeL13, Orn16, Aib20, D-Glu24, αMeY25, K28 and K31: K(AEEA2-(γ-Glu)-CO-(CH2)14-CH3), C-terminal NH2
For the molecule B12, the “EC50, cAMP” value is 0.0218 nM with human GIP receptor, 0.0711 nM in the assay with human GLP-1 receptor and greater than 9950 nM in the assay with human glucagon receptor.

B13: Example 24 (peptide)
peptide: YXEGTXTSDXSIXLDXKAQXEFIXXLIEGKPSSGAPPPS
modifications: Aib2, αMeF(2F)6, 4Pal10, αMeL13, Orn16, Aib20, D-Glu24, αMeY25, K17 and K30: K(AEEA2-(γ-Glu)-CO-(CH2)14-CH3), C-terminal NH2
On to B13, for which the “EC50, cAMP” value was 0.00266 nM with human GIP receptor, 0.0063 nM with human GLP-1 receptor and greater than 9950 nM in the assay with human glucagon receptor.

B14: Example 100 (peptide)
peptide: YXEGTXTSDXGIXLDXKAQXEFIXXLIEGGKSSGAPPPS
modifications: Aib2, αMeF(2F)6, 4Pal10, αMeL13, Orn16, Aib20, D-Glu24, αMeY25, K17 and K31: K(AEEA2-(γ-Glu)-CO-(CH2)12-CO2H), C-terminal NH2
For the molecule B14, the “EC50, cAMP” value with human GLP-1 receptor is 11.4 nM; with human glucagon receptor it was greater than 9950 nM. In addition, the “Emax, cAMP” value in the assay with human GLP-1 receptor worked out at 111%.

B15: Example 23 (peptide)
peptide: YXEGTXTSDXSIXLDXKAQXEFIXXLIKGGPSSGAPPPS
modifications: Aib2, αMeF(2F)6, 4Pal10, αMeL13, Orn16, Aib20, D-Glu24, αMeY25, K17 and K28: K(AEEA2-(γ-Glu)-CO-(CH2)14-CH3), C-terminal NH2
B15: the results for the “EC50, cAMP” value with human GIP receptor, with human GLP-1 receptor and with human glucagon receptor were 0.00299 nM, 0.00722 nM and greater than 9950 nM, respectively.

The values above are taken from US20230265151A1, “GIP/GLP1 CO-AGONIST COMPOUNDS” (priority 2020, published 2023).
